Legend:
LC8 = target: T1, LC8 (Homo sapiens, UniProt Q96FJ2); settings: literature, ref (6)-(10) of supplement, cited from earlier work; for Number of monomeric LC8 in complex / Number of monomeric binding partners in complex: composition of complexes
T1 construct: 6xHis (N); made in house; host or cells: E. coli BL21 (DE3) Rosetta
From the text: According to the standard model of LC8 interactions, the dimeric interface of LC8 presents two interaction sites for partners which also form dimers, implying a 1:1 stoichiometry. Partners with two adjacent binding motifs, like ANA2, follow a 1:2 stoichiometry by binding two LC8[18]. Intriguingly, we observed a 2:1 LCA5:LC8 stoichiometry for the ΔCQS and the ΔVQT mutants, which means that one LC8 dimer binds four LCA5 chains (Supplementary Table S1). A reasonable interpretation is that the native LCA5 is dimeric and thus a pair of LCA5 dimers bind to one dimeric LC8. In such a situation, one i ... || page 10: Composition of complexes Number of LC8 Number of Ratio of LCA5 LC8 binding monomeric binding monomeric LC8 in monomers to LC8 Gene name sites partners in complex complex monomers SWA (6) 1 2 2 1:1 DYNC1I1 (7) 1 2 2 1:1 WDR34-WDR60 3 1+1 6 1:3 (8) ANA2 (9) 2 2 4 1:2 ASCIZ (10) 11 2 22 1:11 sLCA5-WT 2 4 4 1:1 sLCA5-single 1 4 2 2:1 mutants Supplementary Table S1. Stoichiometries of various LC8 binding partners in complex with LC8. Known LC8 binding partners according to literature data always form dimers upon LC8 binding. The stoichiometry is basically 1:1 in case of one LC8 binding sit ...

LC8 in hTERT-RPE1 cells = assay: immunofluorescence colocalization of LCA5 and LC8; type: cell-based; settings: for Pearson's correlation coefficient, LCA5 and LC8: Z-stack images, JACoP
Description: hTERT-RPE1 cells were seeded on poly-lysine-coated 21 mm coverslips. After 24 h, cells were serum-starved for an additional 72 h. Cells were washed with DPBS (Lonza) two times and once in cytoskeletal buffer (10 mM PIPES, 100 mM NaCl, 3 mM MgCl2, 300 mM Sucrose, 5 mM EGTA, 0.5% Triton-X 100, pH 6.9)[44]. Subsequently, cells were fixed in a cytoskeletal buffer containing 4% PFA for 10 min at 37 °C. Fixed cells were washed with DPBS and permeabilised for an additional 30 min in 0.5% Triton-X 100 in DPBS and incubated for 1 h in a blocking buffer (2% BSA, 0.1% Triton-X 100 in DPBS) at room temperature. Primary and secondary antibodies were diluted in a blocking buffer. The cells were incubated with rabbit anti-lebercilin 1:200 (Proteintech 19,333-1-AP), goat anti-LC8 1:100 (Invitrogen PA5-47,957), mouse anti-acetylated-α-tubulin 1:15,000 (Sigma Aldrich 5335S) overnight at 4 °C. Finally, cells were treated with secondary antibodies (anti-goat-Alexa Fluor 488 1:800, anti-mouse-CY3 1:800, anti-rabbit-Alexa Fluor 647 1:800 Jackson ImmunoResearch) for 1 h at room temperature. Coverslips were mounted using ProLong Diamond antifade mountant with DAPI (Invitrogen) and imaged with an inverted Zeiss LSM 800, the image processing was completed with Fiji ImageJ software. The calculations of the colocalization were performed using the JACoP plugin of ImageJ software. The Pearson’s coefficient and the Manders coefficients were calculated on Z-stack images of primary cilia and centrosomes of hTERT-RPE1 cells using manual thresholds. For the statistical analysis of the colocalization a randomization based Costes method was used.

[1] = centrosome, late interphase hTERT-RPE1 cells
[2] = ciliary basal body, ciliated hTERT-RPE1 cells

T1 sequence (Q96FJ2 whole entry): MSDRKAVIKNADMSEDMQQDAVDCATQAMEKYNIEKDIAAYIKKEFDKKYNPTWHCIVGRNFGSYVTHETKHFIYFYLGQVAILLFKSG

B1: DYNC1I1: known LC8 binding partner, literature (protein, UniProt O14576 2-645, looked up)
Cytoplasmic dynein 1 …: SDKSDLKAELERKKQRLAQIREEKKRKEEERKKKEADMQQKKEPVQDDSDLDRKRRETEALLQSIGISPEPPLVQPLHFLTWDTCYFHYLVPTPMSPSSKSVSTPSEAGSQDSGDLGPLTRTLQWDTDPSVLQLQSDSELGRRLHKLGVSKVTQVDFLPREVVSYSKETQTPLATHQSEEDEEDEEMVESKVGQDSELENQDKKQEVKEAPPRELTEEEKQQILHSEEFLIFFDRTIRVIERALAEDSDIFFDYSGRELEEKDGDVQAGANLSFNRQFYDEHWSKHRVVTCMDWSLQYPELMVASYNNNEDAPHEPDGVALVWNMKFKKTTPEYVFHCQSSVMSVCFARFHPNLVVGGTYSGQIVLWDNRSHRRTPVQRTPLSAAAHTHPVYCVNVVGTQNAHNLITVSTDGKMCSWSLDMLSTPQESMELVYNKSKPVAVTGMAFPTGDVNNFVVGSEEGTVYTACRHGSKAGIGEVFEGHQGPVTGINCHMAVGPIDFSHLFVTSSFDWTVKLWTTKHNKPLYSFEDNADYVYDVMWSPVHPALFACVDGMGRLDLWNLNNDTEVPTASVAIEGASALNRVRWAQAGKEVAVGDSEGRIWVYDVGELAVPHNDEWTRFARTLVEIRANRADSEEEGTVELSA
Number of monomeric LC8 in complex (LC8): 2
Number of monomeric binding partners in complex (LC8): 2
LC8 binding sites (LC8): 1

B2: ASCIZ: known LC8 binding partner, literature (protein, UniProt O43313 1-823, looked up)
ATM interactor: MAASEAAAAAGSAALAAGARAVPAATTGAAAAASGPWVPPGPRLRGSRPRPAGATQQPAVPAPPAGELIQPSVSELSRAVRTNILCTVRGCGKILPNSPALNMHLVKSHRLQDGIVNPTIRKDLKTGPKFYCCPIEGCPRGPERPFSQFSLVKQHFMKMHAEKKHKCSKCSNSYGTEWDLKRHAEDCGKTFRCTCGCPYASRTALQSHIYRTGHEIPAEHRDPPSKKRKMENCAQNQKLSNKTIESLNNQPIPRPDTQELEASEIKLEPSFEDSCGSNTDKQTLTTPPRYPQKLLLPKPKVALVKLPVMQFSVMPVFVPTADSSAQPVVLGVDQGSATGAVHLMPLSVGTLILGLDSEACSLKESLPLFKIANPIAGEPISTGVQVNFGKSPSNPLQELGNTCQKNSISSINVQTDLSYASQNFIPSAQWATADSSVSSCSQTDLSFDSQVSLPISVHTQTFLPSSKVTSSIAAQTDAFMDTCFQSGGVSRETQTSGIESPTDDHVQMDQAGMCGDIFESVHSSYNVATGNIISNSLVAETVTHSLLPQNEPKTLNQDIEKSAPIINFSAQNSMLPSQNMTDNQTQTIDLLSDLENILSSNLPAQTLDHRSLLSDTNPGPDTQLPSGPAQNPGIDFDIEEFFSASNIQTQTEESELSTMTTEPVLESLDIETQTDFLLADTSAQSYGCRGNSNFLGLEMFDTQTQTDLNFFLDSSPHLPLGSILKHSSFSVSTDSSDTETQTEGVSTAKNIPALESKVQLNSTETQTMSSGFETLGSLFFTSNETQTAMDDFLLADLAWNTMESQFSSVETQTSAEPHTVSNF
Number of monomeric LC8 in complex (LC8): 22
Number of monomeric binding partners in complex (LC8): 2
LC8 binding sites (LC8): 11

B3: LCA5: 697 amino acid long protein lebercilin, cellular (protein, UniProt Q86VQ0 1-697, looked up)
chain: MGERAGSPGTDQERKAGKHHYSYLSDFETPQSSGRSSLVSSSPASVRRKNPKRQTSDGQVHHQAPRKPSPKGLPNRKGVRVGFRSQSLNREPLRKDTDLVTKRILSARLLKINELQNEVSELQVKLAELLKENKSLKRLQYRQEKALNKFEDAENEISQLIFRHNNEITALKERLRKSQEKERATEKRVKDTESELFRTKFSLQKLKEISEARHLPERDDLAKKLVSAELKLDDTERRIKELSKNLELSTNSFQRQLLAERKRAYEAHDENKVLQKEVQRLYHKLKEKERELDIKNIYSNRLPKSSPNKEKELALRKNAACQSDFADLCTKGVQTMEDFKPEEYPLTPETIMCYENKWEEPGHLTLDLQSQKQDRHGEAGILNPIMEREEKFVTDEELHVVKQEVEKLEDEWEREELDKKQKEKASLLEREEKPEWETGRYQLGMYPIQNMDKLQGEEEERLKREMLLAKLNEIDRELQDSRNLKYPVLPLLPDFESKLHSPERSPKTYRFSESSERLFNGHHLQDISFSTPKGEGQNSGNVRSPASPNEFAFGSYVPSFAKTSERSNPFSQKSSFLDFQRNSMEKLSKDGVDLITRKEKKANLMEQLFGASGSSTISSKSSDPNSVASSKGDIDPLNFLPGNKGSRDQEHDEDEGFFLSEGRSFNPNRHRLKHADDKPAVKAADSVEDEIEEVALR
modifications: full-length
notes: 697 amino acid long protein lebercilin, cellular
thresholded Manders LC8 to LCA5 tM2 (LC8 in hTERT-RPE1 cells; [1]): 0.574
thresholded Manders LCA5 to LC8 tM1 (LC8 in hTERT-RPE1 cells; [1]): 0.929
Pearson's correlation coefficient, LCA5 and LC8 (LC8 in hTERT-RPE1 cells; [1]): 0.802
thresholded Manders LC8 to LCA5 tM2 (LC8 in hTERT-RPE1 cells; [2]): 0.718
thresholded Manders LCA5 to LC8 tM1 (LC8 in hTERT-RPE1 cells; [2]): 0.671
Pearson's correlation coefficient, LCA5 and LC8 (LC8 in hTERT-RPE1 cells; [2]): 0.715

B4: SWA: known LC8 binding partner, literature (protein, UniProt P40688 1-548, looked up)
Protein swallow: MSLQDESFPTDELFDQLNNLSSSGARNTWFAEHHKPAVFERDTAPFLEICYADPDFDADGDVANKSAKTCVSDPVGRDQEDEDDYDEDVDGDDHKLGCEKAPLGSGRSSKAVSYQDIHSAYTKRRFQHVTSKVGQYIAEIQAQDQKRRNVKFAGFQRVNSMPESLTPTLQQVYVHDGDFKVDKNCQTHSNSDSNYNSNSNNSSSSFDRLLAENESLQQKINSLRVEAKRLQGFNEYVQERLDRKTDDFVKMKCNFETLRTELSECQQKLRRQQDNSQHHFMYHIRSATSAKATQTDFLVDTIPASGNVLVTPHPLGDLTYNSSKGSIELALLSVAPSARVAQNPVQVQRAIHPQSLDFSSVSTEADGSGSGEHRVETSSRALVRRTPAPNNSETSQPSSNDSAIEVEAHEEERPSSRRQWEQQGELISPRQWGQHEGMYYFDKRNNRVIEVMGFNISQGRNQSHDTIHNQSINDSQTRLLVHSMSMSHLEAHDHFRSKRTTLGSRMLRFLGPCVRCRNGDPLNRSNVTYKDGLPAMPEEEFVDQRNQR
Number of monomeric LC8 in complex (LC8): 2
Number of monomeric binding partners in complex (LC8): 2
LC8 binding sites (LC8): 1
